Experimental data reported in patent publication US20170015742A1 (published 2017).

Assays:
[1] = biological target: recombinant human VEGF165 (human, UniProt P15692 207-395); assay: cell-based or functional assay
[2] = biological target: recombinant human PDGF-BB (human, UniProt P01127 82-190); assay: cell-based or functional assay
Chain of recombinant human PDGF-BB (P01127 82-190 limits assumed): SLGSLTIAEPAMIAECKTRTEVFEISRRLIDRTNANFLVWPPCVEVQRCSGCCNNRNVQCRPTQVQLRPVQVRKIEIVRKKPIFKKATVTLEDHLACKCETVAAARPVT

Chain of recombinant human VEGF165 (P15692 other isoform, or with tags, fused parts or gaps limits assumed): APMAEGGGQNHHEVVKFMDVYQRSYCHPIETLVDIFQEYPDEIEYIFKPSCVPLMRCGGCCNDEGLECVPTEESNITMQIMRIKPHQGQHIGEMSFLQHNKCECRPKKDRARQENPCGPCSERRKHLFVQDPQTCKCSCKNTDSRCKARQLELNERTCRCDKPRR

Potency IC50 (nM) HMVEC-d hVEGF165 [1] | Potency IC50 (nM) NIH-3T3 hPDGF-BB [2] | Binder
0.391 nM | 0.109 nM | 9E8.4_GS_1B10.1 (bispecific antibody, human IgG1, kappa, L234A L235A) heavy: EVTLRESGPALVKPTQTLTLTCTFSGFSLSTYGMGVGWIRQPPGKALEWLANIWWDDDKYYNPSLKNRLTISKDTSKNQVVLTMTNMDPVDTATYYCARIESIGTTYSFDYWGQGTMVTVSSGGGGSGGGGSEVQLVESGGGLVQPGGSLRLSCAASGFSFSKYDMAWFRQAPGKGLEWVASITTSGVGTYYRDSVKGRFTVSRDNAKSTLYLQMNSLRAEDTAVYYCARGYGAMDAWGQGTTVTVSSASTKGPSVFPLAPSSKSTSGGTAALGCLVKDYFPEPVTVSWNSGALTSGVHTFPAVLQSSGLYSLSSVVTVPSSSLGTQTYICNVNHKPSNTKVDKKVEPKSCDKTHTCPPCPAPEAAGGPSVFLFPPKPKDTLMISRTPEVTCVVVDVSHEDPEVKFNWYVDGVEVHNAKTKPREEQYNSTYRVVSVLTVLHQDWLNGKEYKCKVSNKALPAPIEKTISKAKGQPREPQVYTLPPSREEMTKNQVSLTCLVKGFYPSDIAVEWESNGQPENNYKTTPPVLDSDGSFFLYSKLTVDKSRWQQGNVFSCSVMHEALHNAYTQKSLSLSPGK light: EFVLTQSPGTLSLSPGERATLSCERSSGDIGDSYVSWYQQKPGQAPRLVIYADDQRPSGIPDRFSGSGSGTDFTLTISRLEPEDFAVYYCQSYDINIDIVFGGGTKVEIKGGSGGGGSGGDIQMTQSPSSLSASVGDRVTITCKASQDIDDYLSWYQQKPGKSPKLVIYAATRLADGVPSRFSGSGSGTDYTLTISSLQPEDFATYYCLQSSSTPWTFGGGTKVEIKRTVAAPSVFIFPPSDEQLKSGTASVVCLLNNFYPREAKVQWKVDNALQSGNSQESVTEQDSKDSTYSLSSTLTLSKADYEKHKVYACEVTHQGLSSPVTKSFNRGEC
0.372 nM | 0.039 nM | CL-33675_GS_1E3.4 (bispecific antibody, human IgG1, kappa, L234A L235A) heavy: EVTLRESGPALVKPTQTLTLTCTFSGFSLSTYGMGVGWIRQPPGKALEWLANIWWDDDKYYNPSLKNRLTISKDTSKNQVVLTMTNMDPVDTATYYCARIESSGPKYSFDYWGQGTMVTVSSGGGGSGGGGSEIQLVQSGSELKKPGASVKVSCKASGYPFTNSGMYWVKQAPGQGLEYMGWINTEAGKPTYADDFKGRFVFSLDTSVSTAYLQISSLKAEDTAVYFCARWGYISDNSYGWFDYWGQGTLVTVSSASTKGPSVFPLAPSSKSTSGGTAALGCLVKDYFPEPVTVSWNSGALTSGVHTFPAVLQSSGLYSLSSVVTVPSSSLGTQTYICNVNHKPSNTKVDKKVEPKSCDKTHTCPPCPAPEAAGGPSVFLFPPKPKDTLMISRTPEVTCVVVDVSHEDPEVKFNWYVDGVEVHNAKTKPREEQYNSTYRVVSVLTVLHQDWLNGKEYKCKVSNKALPAPIEKTISKAKGQPREPQVYTLPPSREEMTKNQVSLTCLVKGFYPSDIAVEWESNGQPENNYKTTPPVLDSDGSFFLYSKLTVDKSRWQQGNVFSCSVMHEALHNAYTQKSLSLSPGK light: EIVLTQSPGTLSLSPGERATLSCRASSGSIWYSFVSWYQQKPGQAPRLLIYADDQRASGIPDRFSGSGSGTDFTLTISRLEPEDFAVYYCQSYGINIDVVFGGGTKVEIKGGSGGGGSGGATQLTQSPSSLSASVGDRVTISCRASEGVYSYMHWYQQKPGKQPKLLIYKASNLASGVPSRFSGSGSGTDFTLTISSLQPEDFATYFCHQNWNDPLTFGQGTKLEIKRTVAAPSVFIFPPSDEQLKSGTASVVCLLNNFYPREAKVQWKVDNALQSGNSQESVTEQDSKDSTYSLSSTLTLSKADYEKHKVYACEVTHQGLSSPVTKSFNRGEC
0.073 nM | 0.317 nM | 9E8.4_GS_9E10.1 (bispecific antibody, human IgG1, kappa, L234A L235A) heavy: EVTLRESGPALVKPTQTLTLTCTFSGFSLSTYGMGVGWIRQPPGKALEWLANIWWDDDKYYNPSLKNRLTISKDTSKNQVVLTMTNMDPVDTATYYCARIESIGTTYSFDYWGQGTMVTVSSGGGGSGGGGSEIQLVQSGSELKKPGASVKVSCKASGYTFTNYGMYWVKQAPGQGLEYMGWIDTETGRPTYADDFKGRFVFSLDTSVSTAYLQISSLKAEDTAVYFCARWSGDTTGIRGPWFAYWGQGTLVTVSSASTKGPSVFPLAPSSKSTSGGTAALGCLVKDYFPEPVTVSWNSGALTSGVHTFPAVLQSSGLYSLSSVVTVPSSSLGTQTYICNVNHKPSNTKVDKKVEPKSCDKTHTCPPCPAPEAAGGPSVFLFPPKPKDTLMISRTPEVTCVVVDVSHEDPEVKFNWYVDGVEVHNAKTKPREEQYNSTYRVVSVLTVLHQDWLNGKEYKCKVSNKALPAPIEKTISKAKGQPREPQVYTLPPSREEMTKNQVSLTCLVKGFYPSDIAVEWESNGQPENNYKTTPPVLDSDGSFFLYSKLTVDKSRWQQGNVFSCSVMHEALHNAYTQKSLSLSPGK light: EFVLTQSPGTLSLSPGERATLSCERSSGDIGDSYVSWYQQKPGQAPRLVIYADDQRPSGIPDRFSGSGSGTDFTLTISRLEPEDFAVYYCQSYDINIDIVFGGGTKVEIKGGSGGGGSGGDIRMTQSPSSLSASVGDRVTIECLASEDIYSDLAWYQQKPGKSPKLLIYNANGLQNGVPSRFSGSGSGTDYSLTISSLQPEDVATYFCQQYNYFPGTFGQGTKLEIKRTVAAPSVFIFPPSDEQLKSGTASVVCLLNNFYPREAKVQWKVDNALQSGNSQESVTEQDSKDSTYSLSSTLTLSKADYEKHKVYACEVTHQGLSSPVTKSFNRGEC
0.132 nM | 0.213 nM | 9E8.4_GS_9E10.6 (bispecific antibody, human IgG1, kappa, L234A L235A) heavy: EVTLRESGPALVKPTQTLTLTCTFSGFSLSTYGMGVGWIRQPPGKALEWLANIWWDDDKYYNPSLKNRLTISKDTSKNQVVLTMTNMDPVDTATYYCARIESIGTTYSFDYWGQGTMVTVSSGGGGSGGGGSEVQLVQSGAEVKKPGSSVKVSCKASGYTFTNYGMYWVRQAPGQGLEWMGWIDTETGRPTYADDFKGRFTFTADKSTSTAYMELSSLRSEDTAVYYCARWSGDTTGIRGPWFAYWGQGTLVTVSSASTKGPSVFPLAPSSKSTSGGTAALGCLVKDYFPEPVTVSWNSGALTSGVHTFPAVLQSSGLYSLSSVVTVPSSSLGTQTYICNVNHKPSNTKVDKKVEPKSCDKTHTCPPCPAPEAAGGPSVFLFPPKPKDTLMISRTPEVTCVVVDVSHEDPEVKFNWYVDGVEVHNAKTKPREEQYNSTYRVVSVLTVLHQDWLNGKEYKCKVSNKALPAPIEKTISKAKGQPREPQVYTLPPSREEMTKNQVSLTCLVKGFYPSDIAVEWESNGQPENNYKTTPPVLDSDGSFFLYSKLTVDKSRWQQGNVFSCSVMHEALHNAYTQKSLSLSPGK light: EFVLTQSPGTLSLSPGERATLSCERSSGDIGDSYVSWYQQKPGQAPRLVIYADDQRPSGIPDRFSGSGSGTDFTLTISRLEPEDFAVYYCQSYDINIDIVFGGGTKVEIKGGSGGGGSGGDIRMTQSPSSLSASVGDRVTITCLASEDIYSDLAWYQQKPGKSPKLLIYNANGLQNGVPSRFSGSGSGTDYTLTISSLQPEDVATYFCQQYNYFPGTFGQGTKLEIKRTVAAPSVFIFPPSDEQLKSGTASVVCLLNNFYPREAKVQWKVDNALQSGNSQESVTEQDSKDSTYSLSSTLTLSKADYEKHKVYACEVTHQGLSSPVTKSFNRGEC
